A word on the Kd: it is the equilibrium constant for the complex coming apart. Lower therefore signals higher affinity. By EC50 is commonly meant the concentration at which the effect is half-maximal.

From US20250099579A1 (MARENGO THERAPEUTICS, published 2025) come the findings set out here.

Assay [1] has as its target Vβ6 TCR on human T cells (human). As to the kind of experiment: cell-based or functional assay.
The next assay concerns the target T1, human IL2R beta-gamma (human, UniProt P14784 27-239; P31785 23-262).
T1 construct: Soluble heterodimer used as analyte; also called Human IL-2Rβγ; IL-2Rβγ heterodimer
T1 sequence (looked up) 1: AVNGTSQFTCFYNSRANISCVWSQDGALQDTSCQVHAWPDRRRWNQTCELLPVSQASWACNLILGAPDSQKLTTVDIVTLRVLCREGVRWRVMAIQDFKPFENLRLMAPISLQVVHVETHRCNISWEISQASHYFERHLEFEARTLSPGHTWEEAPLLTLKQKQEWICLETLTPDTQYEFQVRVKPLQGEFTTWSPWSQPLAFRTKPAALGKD
T1 sequence (looked up) 2: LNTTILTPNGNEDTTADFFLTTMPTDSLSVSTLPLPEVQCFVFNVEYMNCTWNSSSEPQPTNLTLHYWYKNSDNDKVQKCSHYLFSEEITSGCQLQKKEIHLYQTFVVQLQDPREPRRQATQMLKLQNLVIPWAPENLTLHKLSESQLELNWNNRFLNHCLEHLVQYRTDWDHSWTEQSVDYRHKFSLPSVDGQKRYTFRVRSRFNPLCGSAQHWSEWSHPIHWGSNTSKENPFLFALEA
As to the kind of experiment: SPR (Biacore T200), BKM0186 captured via anti-human Fc on CM5 chip, receptor as analyte, 1:1 Langmuir model. Here is the method:
(§1) All interactions between bispecifics and relevant receptors were analyzed by Surface Plasmon Resonance (SPR) on a Biacore T200 instrument.
(§2) BKM0186 at 2 μg/mL was immobilized on a Series S CM5 chip via human Fe antibody to 80 RU. Human IL2Ra and cynomolgus IL2Ra were diluted to 500 nM, human IL2R beta-gamma and cynomolgus IL2R beta-gamma were diluted to 125 nM, and human IL2R trimeric complex was diluted to 50 nM and then serially diluted two-fold in 1×HBS-EP+ buffer for a total of 10 concentrations. Multi cycle kinetics was run where the chip is regenerated with 3 M Magnesium Chloride between each cycle followed by a new injection of BKM0186. An association time of 120 seconds and a dissociation time of 150 seconds for human and cyno IL2Ra, 300 seconds for human and cyno IL2R beta-gamma, and 900 seconds for the human IL2R trimeric complex was done at 30 uL/min. This assay was run in 1×HBS-EP+ Buffer pH 7.4 and 25 C. Sensorgrams were corrected by double reference subtraction using the reference flow cell not treated with BKM0186 and a blank cycle of buffer alone. BIAevaluation software was used for data analysis and the data were fit using a 1:1 Langmuir binding model for calculation of the KD value (Koff/Kon). Due to faster off rates observed for human and cyno IL2Ra binding, the data were fit using a steady state model where equilibrium binding response is analyzed.
(In general: In SPR one partner is held on a chip, and binding of the other changes the refractive index at the surface.)

The target of assay [2] is T2, cynomolgus IL2R beta-gamma (cynomolgus).
T2 construct: also called Cyno IL-2Rβγ
Described as above. On the procedure: as §1, §2

The next assay deals with T3, Human IL2Ra (human, UniProt P01589 22-213, limits assumed).
T3 construct: also called Human IL-2Rα; CD25
T3 sequence (looked up): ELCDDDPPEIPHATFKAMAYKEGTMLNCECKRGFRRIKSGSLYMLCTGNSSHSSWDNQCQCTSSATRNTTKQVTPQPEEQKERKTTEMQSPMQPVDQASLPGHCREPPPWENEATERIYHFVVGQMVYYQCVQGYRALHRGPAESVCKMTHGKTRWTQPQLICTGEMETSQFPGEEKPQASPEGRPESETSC
Put plainly: SPR (Biacore T200), BKM0186 captured via anti-human Fc on CM5 chip, receptor as analyte, steady state model. On the procedure: as §1, §2

Another assay addresses T4, cynomolgus IL2Ra (cynomolgus, UniProt H6WS54 22-213).
T4 construct: also called Cyno IL-2Rα
T4 sequence: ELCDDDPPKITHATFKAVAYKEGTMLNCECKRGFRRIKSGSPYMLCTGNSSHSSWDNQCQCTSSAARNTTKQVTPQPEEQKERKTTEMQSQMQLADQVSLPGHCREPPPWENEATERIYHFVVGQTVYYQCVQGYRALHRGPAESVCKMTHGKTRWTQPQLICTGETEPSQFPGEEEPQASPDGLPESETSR
Described as above. Here is the method:
as §1, §2

Assay [3] addresses T5, human IL2R trimeric complex (human, UniProt P01589 22-213; P14784 27-239; P31785 23-262).
T5 construct: also called Human IL-2Rαβγ
T5 sequence (looked up) 1: T3 sequence (looked up)
T5 sequence (looked up) 2: T1 sequence (looked up) 1
T5 sequence (looked up) 3: T1 sequence (looked up) 2
Put plainly: SPR (Biacore T200), BKM0186 captured via anti-human Fc on CM5 chip, receptor complex as analyte, 1:1 Langmuir model. On the procedure:
as §1, §2

Assay [4] has as its target T6, Vβ6 TCR on human T cells (human).
T6 construct: whole, on cells; Polyclonal T cells: CDR3 and the paired alpha chains vary; also called Vβ6 T cells; TCRVβ6-5
Put plainly: flow cytometry on sorted, activated TCRVβ6-5 positive CD25 hi human T cells (cells carry both Vβ6 TCR and CD25; co-operative binding). The source says: Pan T-cells were isolated from PBMC's via negative selection on the autoMACS. T-cells were stained for TCRVβ6-5 and sorted on the Sony SH800 cell sorter into cell culture media. Sorted TCRVβ6-5 T-cells and non-sorted pan T-cells were activated and expanded using anti-CD3/CD28 beads followed by IL-2 culture. Portion of activated T-cells were allowed to rest for 3-days in serum-free media. Anti-CD25 FACS staining to confirm CD25 upregulation (from activation) and downmodulation (from resting). T-cells that represents TCRVβ6-5(pos) CD25(hi); TCRVβ6-5(pos) CD25(low); TCRVβ6-5(neg) CD25(hi); TCRVβ6-5(neg) CD25(low) are checked for BKM0186 construct binding.
This avidity effect confirms that BKM0186 engages both Vβ6 and IL-2R via a cis binding mode.
Background: In flow cytometry, cells or beads pass a laser one at a time.

The target in another assay is T7, Human Vβ6 TCR (human).
T7 construct: The method text calls it Human Vβ6 TCR; also called Human TCRVβ
Put plainly: SPR (Biacore T200), BKM0186 captured via anti-human Fc on CM5 chip (80 RU), TCR as analyte, multi cycle kinetics, 1:1 Langmuir model, 25 C. On the procedure:
as §1
(§3) BKM0186 at 2 μg/mL was immobilized on a Series S CM5 chip via human Fe antibody to 80 RU. Human Vβ6 TCR and cynomolgus Vβ6 TCR were diluted to 250 nM and then serially diluted two-fold in 1×HBS-EP+ buffer for a total of 10 concentrations. Multi cycle kinetics was done with an association time of 120 seconds and a dissociation time of 600 seconds, for human Vβ6 TCR and 300 seconds for cynomolgus Vβ6 TCR at 30 uL/min. This assay was run in 1×HBS-EP+ Buffer pH 7.4 at 25 C. Sensorgrams were corrected by reference subtraction using the reference flow cell not treated with BKM0186. BIAevaluation software was used for data analysis and the data were fit using a 1:1 Langmuir binding model for calculation of the KD value (Koff/Kₒₙ).

The target of the next assay is T8, cynomolgus Vβ6 TCR (cynomolgus).
T8 construct: also called Cyno TCRVβ
The assay is described as above. Here is the method: as §1, §3

T6 sequence (A0A0K0K1A5 22-114): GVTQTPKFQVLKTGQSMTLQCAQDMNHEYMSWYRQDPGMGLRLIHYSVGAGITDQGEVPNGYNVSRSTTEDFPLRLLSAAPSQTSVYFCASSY

B1: BKM0186 (bispecific antibody, human IgG1, kappa, N297A)
heavy: QVQLVQSGAEVKKPGSSVKVSCKASGHDFRLTYIHWVRQAPGQGLEWMGRVSAGSGNVKYNEKFKGRVTITADTSTSTAYMELSSLRSEDTAVYYCAVSYYSYDVLDYWGQGTTVTVSSASTKGPSVFPLAPSSKSTSGGTAALGCLVKDYFPEPVTVSWNSGALTSGVHTFPAVLQSSGLYSLSSVVTVPSSSLGTQTYICNVNHKPSNTKVDKRVEPKSCDKTHTCPPCPAPELLGGPSVFLFPPKPKDTLMISRTPEVTCVVVDVSHEDPEVKFNWYVDGVEVHNAKTKPREEQYASTYRVVSVLTVLHQDWLNGKEYKCKVSNKALPAPIEKTISKAKGQPREPQVCTLPPSREEMTKNQVSLSCAVKGFYPSDIAVEWESNGQPENNYKTTPPVLDSDGSFFLVSKLTVDKSRWQQGNVFSCSVMHEALHNHYTQKSLSLSPGK
chain: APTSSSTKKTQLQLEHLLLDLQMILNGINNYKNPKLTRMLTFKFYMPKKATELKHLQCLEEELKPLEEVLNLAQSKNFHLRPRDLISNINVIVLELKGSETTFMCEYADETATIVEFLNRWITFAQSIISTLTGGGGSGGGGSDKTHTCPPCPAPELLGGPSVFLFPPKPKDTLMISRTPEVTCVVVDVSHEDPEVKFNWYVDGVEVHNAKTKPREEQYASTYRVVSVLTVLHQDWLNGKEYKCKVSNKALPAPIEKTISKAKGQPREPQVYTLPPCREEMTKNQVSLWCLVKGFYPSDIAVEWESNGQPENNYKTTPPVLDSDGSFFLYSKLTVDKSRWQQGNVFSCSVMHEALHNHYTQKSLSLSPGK
light: DIQMTQSPSFLSASVGDRVTITCKASQNVADRVVWHQQKPGKAPKALIYSSSHRYKGVPSRFSGSGSGTEFTLTISSLQPEDFATYFCQQFKSYPLTFGQGTKLEIKRTVAAPSVFIFPPSDEQLKSGTASVVCLLNNFYPREAKVQWKVDNALQSGNSQESVTEQDSKDSTYSLSSTLTLSKADYEKHKVYACEVTHQGLSSPVTKSFNRGEC
notes: also called TCRVβ/IL-2 (C125A) bispecific; IL2xTCRVβ
With B1, in the assay with Vβ6 TCR on human T cells [1], the “EC50 of proliferation of Vβ6 T cells as a proportion of total CD4+ T cells (human PBMCs, 5 days)” value was 12 nM. For the same molecule, the “EC50 of proliferation of Vβ6 T cells as a proportion of total CD8+ T cells (human PBMCs, 5 days)” value with Vβ6 TCR on human T cells [1] worked out at 6 nM. The Kd with human IL2R beta-gamma came to 3.8 nM; in assay [2], 3.3 nM; with Human IL2Ra, 45 nM; with cynomolgus IL2Ra, 48 nM; in assay [3] it was 0.1 nM; with Human Vβ6 TCR it was 1.7 nM. For the same molecule, the Kd with cynomolgus Vβ6 TCR was 4.9 nM. Moreover, a half-maximal response with Vβ6 TCR on human T cells [4] (EC50) required 0.5 nM.
